Target: OVA peptide 257-264 (SIINFEKL) presented on MHC class I molecule K^b of antigen presenting cells (mouse; chicken)
Test: cell-based or functional assay

% of B3Z cells activated (lacZ reporter, flow cytometry); lymph node cells of mice with B16/OVA tumors injected with α-gal glycolipids: 1.07 to 3.66% | % of B3Z cells activated (lacZ reporter, flow cytometry); lymph node cells of mice with PBS treated B16/OVA tumors: 0 to 0.14%
Substance: α-β T cell receptor (TCR) of B3Z CD8+ T hybridoma cells, specific for OVA257-264 presented on K^b

— patent US20060251661A1
